Measurements as given in patent US20180326059A1 (GANYMED PHARMACEUTICALS, published 2018).

Molecular target: Claudin 18 splice variant 2 (CLDN18.2), human (human)
Assay: cell-based or functional assay

IMAB362-mediated ADCC on NUGC-4 cells, EC50 on chemotherapy-pretreated versus untreated target cells: ~0.33 fraction of the EC50 on untreated cells
B1: IMAB362 (antibody, V domains shown)
VH: QVQLQQPGAELVRPGASVKLSCKASGYTFTSYWINWVKQRPGQGLEWIGNIYPSDSYTNYNQKFKDKATLTVDKSSSTAYMQLSSPTSEDSAVYYCTRSWRGNSFDYWGQGTTLTVSS
VL: DIVMTQSPSSLTVTAGEKVTMSCKSSQSLLNSGNQKNYLTWYQQKPGQPPKLLIYWASTRESGVPDRFTGSGSGTDFTLTISSVQAEDLAVYYCQNDYSYPFTFGSGTKLEIKR
modifications: In the in vivo imaging of Example 14 the antibody carried a Dyelight 680 label, site not given; unlabelled in the flow cytometry.
